What was measured:
PrnC = molecular target: T1, PrnC (Pseudomonas fluorescens, UniProt P95482); assay: In vitro halogenation with PrnC: chlorination of MDA to APRN (Example 3); assay type: biochemical, P. fluorescens; conditions: Extract #2 (PrnC depleted of P2) plus 20 microliter electron transferase, NADH, overnight
T1 construct: made in house; host or cells: P. fluorescens (pPEH/prnC/134Δprn), plasmid pPEH-PrnC with tac promoter
T1 sequence (P95482 whole entry, looked up): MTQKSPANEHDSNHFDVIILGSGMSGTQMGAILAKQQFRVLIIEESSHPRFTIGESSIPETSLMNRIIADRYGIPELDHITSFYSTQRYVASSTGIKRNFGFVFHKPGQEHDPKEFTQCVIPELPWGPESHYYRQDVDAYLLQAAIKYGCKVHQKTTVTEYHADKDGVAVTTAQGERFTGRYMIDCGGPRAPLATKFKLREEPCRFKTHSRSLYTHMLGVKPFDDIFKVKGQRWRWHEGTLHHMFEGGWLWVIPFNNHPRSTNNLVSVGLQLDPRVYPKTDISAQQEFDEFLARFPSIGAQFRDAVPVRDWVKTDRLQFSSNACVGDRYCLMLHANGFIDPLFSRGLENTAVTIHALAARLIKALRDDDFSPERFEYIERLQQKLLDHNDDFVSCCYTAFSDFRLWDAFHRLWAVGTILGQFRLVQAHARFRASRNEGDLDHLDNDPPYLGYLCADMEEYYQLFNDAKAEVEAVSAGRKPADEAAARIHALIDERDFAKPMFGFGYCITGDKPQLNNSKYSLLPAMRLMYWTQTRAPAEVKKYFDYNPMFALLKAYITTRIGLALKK
Protocol: Fre, ferrodoxin NADP reductase, ferrodoxin and NADPH FMN-reductase are tested for the ability to activate P. fluorescens PrnC that was depleted of endogenous electron transferase (P2) as described below. PrnC catalyzes chlorination of monodechloroaminopyrrolnitrin (MDA) to yield aminopyrrolnitrin (APRN).
The following materials are prepared for use in assays described below. Buffer 100 mM Tris/Cl, 1 mM EDTA. pH 7.5. Monodechloroaminopyrrolnitrin (MDA) 74.2 mM is prepared by culture of Pseudomonas fluorescens expressing PrnA and PrnB as described in (Kirner et al,1998) which is herein incorporated by reference in its entirety. The assay mix comprises FAD (5 μM) and MDA (742 μM) in buffer. […]
The assays described below are run as follows; Extract #2 is mixed with the indicated electron transferase, assay mix and either NADH or NADPH as indicated. The native activity of PrnC prior to removal of the P2 activity is determined by a parallel sample in which extract #1 is mixed with assay mix and NADH. […] Samples are analyzed by PrnC_Iso method described below. The 220 nm absorbance chromatogram is analyzed and integrated. PrnC activity is expressed as 100 times the ratio of the APRN peak area to the sum of the peak areas of APRN and MDA. Assuming equal extinction coefficients at 220 nm the calculated ratio is equivalent to the net % conversion of MDA to APRN by halogenation. […]

PrnA = molecular target: T2, PrnA (Pseudomonas fluorescens, UniProt P95480); assay: Activation of PrnA by electron transferases, 2 h assay (Example 2); assay type: biochemical; conditions: 20 microliter PrnA, 50 microliter NADH, 50 microliter electron transferase, room temperature
T2 construct: made in house; host or cells: Pseudomonas fluorescens BL915deltaORF1-4 with plasmid pPEH14 (prnA)
Protocol: The following components are used in examples 1-4 below: PrnA (described for Example 1 above) at 0.36 mg/ml, Assay Mixture containing HEPES (100 mM), glucose-6-phosphate, disodium salt (50 mM), D-Trp (5 mM), NaCl (5 mM). Aspergillus niger catalase (39 U/ml), bovine erythrocyte superoxide dismutase (15 U/ml), Leuconostoc mesenteroides glucose-6-phosphate dehydrogenase (10 U/ml). NADH-(3 mg/ml) NADPH (3 mg/ml).
Each assay contains the assay mixture, either NADH (for samples containing Fre and the NAD(P)H:FMN reductase) or NADPH (for samples containing FNR or FNR and Fd), PrnA and the indicated electron transferase. Negative control samples are incubated in parallel; these substituted buffer for PrnA. Quantification standards are prepared by diluting 0,1, 2 or 5 microliter of 7-Cl-Trp standard (1 mM) in 100 microliter Assay Mixture, 50 microliter NADH, 20 microliter PrnA and 50 microliter buffer; the tubes were heated to 100 C. prior to addition of PrnA, then heated an additional 2 min. Further processing is in parallel with the enzymatic reactions. All samples are mixed for 2 h at room temperature. Reactions are stopped and samples processed as described above in Example 1, including using the HPLC Analytical method PrnA1 as described in Example 1.

T2 sequence (P95480 whole entry): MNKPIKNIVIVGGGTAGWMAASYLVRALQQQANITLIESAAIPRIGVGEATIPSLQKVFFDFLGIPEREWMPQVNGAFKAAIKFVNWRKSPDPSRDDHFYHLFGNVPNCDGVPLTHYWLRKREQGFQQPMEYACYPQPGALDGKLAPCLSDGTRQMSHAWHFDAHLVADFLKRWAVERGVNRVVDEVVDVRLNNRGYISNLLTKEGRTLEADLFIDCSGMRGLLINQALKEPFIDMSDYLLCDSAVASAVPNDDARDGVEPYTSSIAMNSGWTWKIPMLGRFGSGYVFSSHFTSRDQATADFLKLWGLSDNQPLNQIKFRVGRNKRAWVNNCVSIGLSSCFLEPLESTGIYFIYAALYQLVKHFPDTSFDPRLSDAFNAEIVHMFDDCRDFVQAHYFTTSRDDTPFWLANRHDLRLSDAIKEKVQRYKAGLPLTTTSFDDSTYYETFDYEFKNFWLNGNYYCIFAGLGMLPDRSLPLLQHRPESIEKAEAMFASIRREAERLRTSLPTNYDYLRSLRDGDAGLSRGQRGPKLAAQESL

ferrodoxin NADP reductase and ferrodoxin: Spinach ferredoxin NADP reductase used together with spinach ferredoxin (Fd)
PrnC activity, conversion of MDA to APRN (PrnC): 2.5%
Net 7-Cl-Trp produced (PrnA): 9.15 nmol

From patent US20030135880A1, “Compositions and methods for halogenation reactions” (priority 2002, published 2003)
